Experimental data taken from US20100189722A1 (Boehringer Ingelheim, published 2010).

Target: T1, CD37 antigen (cellular CD37 on Ramos Burkitt lymphoma cells; also on RPMI 8226 multiple myeloma cells) (human, UniProt P11049 1-281)
T1 sequence (looked up): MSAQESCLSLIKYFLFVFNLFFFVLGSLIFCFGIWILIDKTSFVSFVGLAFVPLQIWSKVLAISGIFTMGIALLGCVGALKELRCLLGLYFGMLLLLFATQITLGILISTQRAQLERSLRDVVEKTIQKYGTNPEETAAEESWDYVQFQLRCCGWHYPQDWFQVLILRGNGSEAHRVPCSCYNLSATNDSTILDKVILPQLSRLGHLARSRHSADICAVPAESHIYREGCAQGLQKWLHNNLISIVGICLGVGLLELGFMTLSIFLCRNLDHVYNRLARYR
Assay: cell-based or functional assay

B1: Fc-engineered humanized anti-CD37 antibody B2 (S239D/I332E) (antibody, human IgG1, kappa, V domains shown)
VH: AVQLVQSGAEVKKPGSSVKVSCKASGYSFTGYNMNWVRQAPGQGLEWMGNIDPYYGGTTYNRKFKGRVTLTVDKSSSTAYMELSSLRSEDTAVYYCARSVGPMDYWGQGTLVTVSS
VL: DIQMTQSPSSLSASVGDRVTITCRTSENVYSYLAWYQQKPGKAPKLLVSFAKTLAEGVPSRFSGSGSGTDFTLTISSLQPEDFATYFCQHHSDNPWTFGQGTKVEIKR
  ADCC EC50 on RPMI 8226 multiple myeloma cells: ~0.025 µg/mL

B2: Fc-engineered chimeric anti-CD37 antibody A2 (S239D/I332E) (antibody, human IgG1, kappa)
heavy: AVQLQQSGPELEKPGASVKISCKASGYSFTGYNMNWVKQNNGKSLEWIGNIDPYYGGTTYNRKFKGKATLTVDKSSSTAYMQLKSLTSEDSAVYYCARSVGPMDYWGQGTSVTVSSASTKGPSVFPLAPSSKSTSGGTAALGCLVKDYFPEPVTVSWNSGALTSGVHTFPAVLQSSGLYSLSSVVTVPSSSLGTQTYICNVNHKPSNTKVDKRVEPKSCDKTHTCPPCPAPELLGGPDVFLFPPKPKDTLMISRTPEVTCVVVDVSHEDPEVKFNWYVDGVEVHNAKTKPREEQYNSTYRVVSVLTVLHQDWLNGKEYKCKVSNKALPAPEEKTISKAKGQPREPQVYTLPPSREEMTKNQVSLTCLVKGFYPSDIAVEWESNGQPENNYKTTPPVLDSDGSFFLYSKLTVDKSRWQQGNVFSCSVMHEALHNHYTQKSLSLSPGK
light: DIQMTQSPASLSASVGETVTITCRTSENVYSYLAWYQQKQGKSPQLLVSFAKTLAEGVPSRFSGSGSGTQFSLKISSLQPEDSGSYFCQHHSDNPWTFGGGTELEIKRTVAAPSVFIFPPSDEQLKSGTASVVCLLNNFYPREAKVQWKVDNALQSGNSQESVTEQDSKDSTYSLSSTLTLSKADYEKHKVYACEVTHQGLSSPVTKSFNRGEC
  ADCC EC50 on RPMI 8226 multiple myeloma cells: ~0.025 µg/mL
